Measured values reported in the supplement of paper PMC12338614.
± gives the uncertainty stated by the source.

B1: library; numbered along this chain (parent)
chain: MEVVDPQQLGMFTEGELMSVGMDTFIHRIDSTEVIYQPRRKRAKLIGKYLMGDLLGEGSYGKVKEVLDSETLCRRAVKILKKKKLRRIPNGEANVKKEIQLLRRLRHKNVIQLVDVLYNEEKQKMYMVMEYCVCGMQEMLDSVPEKRFPVCQAHGYFCQLIDGLEYLHSQGIVHKDIKPGNLLLTTGGTLKISDLGVAEALHPFAADDTCRTSQGSPAFQPPEIANGLDTFSGFKVDIWSAGVTLYNITTGLYPFEGDNIYKLFENIGKGSYAIPGDCGPPLSDLLKGMLEYEPAKRFSIRQIRQHSWFRKKHPPAEAPVPIPPSPDTKDRWRSMTVVPYLEDLHGADEDEDLFDIEDDIIYTQDFTVPGQVPEEEASHNGQRRGLPKAVCMNGTEAAQLSTKSRAEGRAPNPARKACSASSKIRRLSACKQQ

Variants of: B1
Test: STK11 functional score (HeLa growth suppression), rescaled enrichment; synonymous median = 1, nonsense median = 0 (normalised score)
Details: with HeLa; variant type: missense
Procedure, shortened: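 HeLa cells carrying an AAVS1 landing pad received codon-optimised STK11 libraries made by codon randomisation (POPCode), integrated by Bxb1, with three regions each transfected three times. Integrants that were BFP-negative and mCherry-positive were sorted by FACS 4–5 days after electroporation and then grown for about two weeks. Tiled amplicons from gDNA were sequenced on NextSeq at ~2 million reads per tile. The functional score is a wild-type-corrected log ratio of post- to pre-selection counts, rescaled to the synonymous and nonsense medians, merged across codons and replicate transfections, and given a bootstrapped error.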
Work on A153R yielded an STK11 functional score of 0.204 ± 0.096. R74S showed an STK11 functional score of 0.519 ± 0.21. L341N was tested, and the STK11 functional score was 1.52 ± 0.19. In the case of M22A, the STK11 functional score is reported as 1.21 ± 0.85. K262A showed an STK11 functional score of 1.23 ± 0.36. K41G gave an STK11 functional score of 1.25 ± 0.13. L285V gave an STK11 functional score of 0.239 ± 0.1. L9H showed an STK11 functional score of 1.67 ± 0.15. Y246R showed an STK11 functional score of 0.128 ± 0.28. For E223W, the STK11 functional score was 0.142 ± 0.1. D176T showed an STK11 functional score of -0.105 ± 0.43. E256G was tested, and the STK11 functional score was 1.17 ± 0.28. In the case of S378Q, the STK11 functional score is reported as 0.786 ± 0.15. In the case of E375K, the STK11 functional score is reported as 1.56 ± 0.51. R405M showed an STK11 functional score of 1.6 ± 0.2. In the case of L190A, the STK11 functional score is reported as 0.537 ± 0.49. For E342L, the STK11 functional score was 1.26 ± 0.25. For D284E, the STK11 functional score was 1 ± 0.29. With T336L the STK11 functional score was 1.39 ± 0.15. For M22G, the STK11 functional score was 1.07 ± 0.099. Variant E33I has an STK11 functional score of 0.611 ± 0.19. Q7W was tested, and the STK11 functional score was 1.1 ± 0.13. Q382V gave an STK11 functional score of 1.12 ± 0.25. With V95W the STK11 functional score was 0.452 ± 0.08. For A218Q, the STK11 functional score was 1.25 ± 0.29. Variant M125K has an STK11 functional score of 1.04 ± 0.67. Work on C278L yielded an STK11 functional score of 1.08 ± 0.46. W239S was tested, and the STK11 functional score was 0.00373 ± 0.1. A76S was tested, and the STK11 functional score was 1.12 ± 0.2. In the case of Y156C, the STK11 functional score is reported as 0.324 ± 0.12. With S419E the STK11 functional score was 1.24 ± 0.45. Variant R304K has an STK11 functional score of 1.31 ± 0.65. Work on T71P yielded an STK11 functional score of 0.376 ± 0.19. Variant D115W has an STK11 functional score of 0.727 ± 0.26. A397N showed an STK11 functional score of 0.679 ± 0.15. For V143H, the STK11 functional score was 1.44 ± 0.18. With L400V the STK11 functional score was 1.41 ± 0.26. With K416H the STK11 functional score was 1.42 ± 0.19. H107I was tested, and the STK11 functional score was 0.0231 ± 0.17. Variant R331A has an STK11 functional score of 0.000385 ± 0.16. Variant I248E has an STK11 functional score of 0.873 ± 0.49. In the case of C391V, the STK11 functional score is reported as 0.834 ± 0.47. In the case of T71C, the STK11 functional score is reported as 1.33 ± 0.5. Variant S422N has an STK11 functional score of 0.705 ± 0.48. S419H gave an STK11 functional score of 1.63 ± 0.18. E145M was tested, and the STK11 functional score was 1.3 ± 0.13. Q302W showed an STK11 functional score of 0.804 ± 0.68. For T249W, the STK11 functional score was 0.0979 ± 0.1. Variant T186H has an STK11 functional score of 0.54 ± 0.59. Variant E223D has an STK11 functional score of 0.948 ± 0.23. In the case of E121T, the STK11 functional score is reported as 1.13 ± 0.36. A43L was tested, and the STK11 functional score was 1.58 ± 0.34. Variant A206S has an STK11 functional score of 1.17 ± 0.093. Work on L201W yielded an STK11 functional score of 0.55 ± 0.12. L195A was tested, and the STK11 functional score was 1.17 ± 0.39. Variant S325M has an STK11 functional score of 0.0951 ± 0.43. With D30W the STK11 functional score was 1.3 ± 0.58. For D284C, the STK11 functional score was 0.513 ± 0.086. Work on N90D yielded an STK11 functional score of 1.23 ± 0.21. Variant P281Y has an STK11 functional score of 1.38 ± 0.23. K175P showed an STK11 functional score of -0.179 ± 0.081. G370F gave an STK11 functional score of 1.5 ± 0.27. Y118F was tested, and the STK11 functional score was 0.519 ± 0.077. In the case of M392L, the STK11 functional score is reported as 1.57 ± 0.29. With K287V the STK11 functional score was 1.2 ± 0.36. For P221C, the STK11 functional score was 0.759 ± 0.11. With D162F the STK11 functional score was 1.15 ± 0.4. Work on R39S yielded an STK11 functional score of 1.17 ± 0.36. In the case of G276C, the STK11 functional score is reported as 1.2 ± 0.65. For M125S, the STK11 functional score was 0.769 ± 0.16. Q371W gave an STK11 functional score of 0.748 ± 0.14. Work on R74H yielded an STK11 functional score of 1.6 ± 0.47. With V390W the STK11 functional score was 0.447 ± 0.12. Variant S59F has an STK11 functional score of 0.672 ± 0.24. Work on C151K yielded an STK11 functional score of 1.67 ± 0.32. G135W gave an STK11 functional score of 0.571 ± 0.6. For R297L, the STK11 functional score was -0.121 ± 0.1. With K235I the STK11 functional score was 1.06 ± 0.65. Variant E256I has an STK11 functional score of 1.04 ± 0.77. R409D was tested, and the STK11 functional score was 1.09 ± 0.66. For G215D, the STK11 functional score was 0.255 ± 0.12. P221S was tested, and the STK11 functional score was 1.07 ± 0.22. In the case of V173I, the STK11 functional score is reported as 1.52 ± 0.25. With K78G the STK11 functional score was 0.0293 ± 0.084. C73V showed an STK11 functional score of 1.55 ± 0.24. With S404D the STK11 functional score was 1.18 ± 0.3. S325Y showed an STK11 functional score of 0.029 ± 0.42. G15L gave an STK11 functional score of 1.48 ± 0.2. D115G was tested, and the STK11 functional score was 0.497 ± 0.1. Work on Y131D yielded an STK11 functional score of 0.0798 ± 0.094. N90R showed an STK11 functional score of 1.01 ± 0.18. Variant G394F has an STK11 functional score of 1.17 ± 0.11. In the case of R409G, the STK11 functional score is reported as 1.25 ± 0.32. In the case of G346T, the STK11 functional score is reported as 1.62 ± 0.21. G268D gave an STK11 functional score of 1.53 ± 0.19. M125A was tested, and the STK11 functional score was 1.14 ± 0.36. With R426A the STK11 functional score was 0.525 ± 0.27. A429D gave an STK11 functional score of 1.52 ± 0.12. Q220C showed an STK11 functional score of 1.18 ± 0.45. Variant K423E has an STK11 functional score of 1.62 ± 0.12. With Y126M the STK11 functional score was 0.654 ± 0.64. D141S was tested, and the STK11 functional score was 1.21 ± 0.081. Variant E375I has an STK11 functional score of 1.59 ± 0.28. V320C showed an STK11 functional score of 0.788 ± 0.12. Work on L140Y yielded an STK11 functional score of -0.0286 ± 0.081. V236W was tested, and the STK11 functional score was 1.04 ± 0.19. Work on Q364R yielded an STK11 functional score of 1.1 ± 0.27. C73I gave an STK11 functional score of 0.566 ± 0.1. With L353R the STK11 functional score was 1.57 ± 0.17. With V143G the STK11 functional score was 1.33 ± 0.077. L167Y showed an STK11 functional score of 0.387 ± 0.46. In the case of S31Y, the STK11 functional score is reported as 1.36 ± 0.18. For Q220P, the STK11 functional score was 0.0844 ± 0.12. P149S was tested, and the STK11 functional score was 0.988 ± 0.13. Variant W239G has an STK11 functional score of -0.0583 ± 0.093. L17P was tested, and the STK11 functional score was 1.6 ± 0.25. D352Y showed an STK11 functional score of 0.953 ± 0.14. V338D showed an STK11 functional score of 1.39 ± 0.18. Y292T gave an STK11 functional score of 1.68 ± 0.3. G171W gave an STK11 functional score of 1.53 ± 0.11. R426G gave an STK11 functional score of 1.1 ± 0.26. With A93V the STK11 functional score was 0.101 ± 0.08. In the case of H313I, the STK11 functional score is reported as 1.45 ± 0.24. Variant F219L has an STK11 functional score of 1.11 ± 0.13. Variant K329A has an STK11 functional score of 1.58 ± 0.16. A218S was tested, and the STK11 functional score was 1.09 ± 0.17. Work on R310Y yielded an STK11 functional score of 1.53 ± 0.17. Q37D gave an STK11 functional score of 1.4 ± 0.29. For S307V, the STK11 functional score was 1.34 ± 0.16. In the case of H345A, the STK11 functional score is reported as 1.56 ± 0.14. Work on H168P yielded an STK11 functional score of 0.0717 ± 0.12. In the case of H174G, the STK11 functional score is reported as 0.326 ± 0.24. E256V was tested, and the STK11 functional score was 0.873 ± 0.33. K311G was tested, and the STK11 functional score was 1.35 ± 0.23. For L245T, the STK11 functional score was -0.038 ± 0.1. With Y156F the STK11 functional score was 1.27 ± 0.084. Work on R384S yielded an STK11 functional score of 1.53 ± 0.26. S193A was tested, and the STK11 functional score was 0.853 ± 0.12. V4F gave an STK11 functional score of 0.964 ± 0.46. In the case of G268H, the STK11 functional score is reported as 1.15 ± 0.61. I300G gave an STK11 functional score of 0.368 ± 0.12. D162E showed an STK11 functional score of 0.171 ± 0.15. With I267D the STK11 functional score was 0.629 ± 0.22. E291C gave an STK11 functional score of 1.24 ± 0.24. Y362I showed an STK11 functional score of 1.56 ± 0.15. Variant S404I has an STK11 functional score of 1.22 ± 0.13. Q220S gave an STK11 functional score of 1.21 ± 0.13. In the case of I424Y, the STK11 functional score is reported as 1.12 ± 0.26. With E92M the STK11 functional score was -0.344 ± 0.13. Work on F354A yielded an STK11 functional score of 1.54 ± 0.21. Work on L183Y yielded an STK11 functional score of 1.57 ± 0.1. Q399S was tested, and the STK11 functional score was 0.903 ± 0.3. With P217H the STK11 functional score was 0.332 ± 0.43. L101M showed an STK11 functional score of 1.62 ± 0.22. A429V was tested, and the STK11 functional score was 1.47 ± 0.33. In the case of E120Y, the STK11 functional score is reported as 0.964 ± 0.2. In the case of S193T, the STK11 functional score is reported as 1.22 ± 0.22. I79S gave an STK11 functional score of 0.761 ± 0.099. Work on Y246M yielded an STK11 functional score of 1.29 ± 0.17. N247D gave an STK11 functional score of 0.827 ± 0.46. R103H gave an STK11 functional score of 1.6 ± 0.32. With E375H the STK11 functional score was 1.24 ± 0.57. In the case of R301Y, the STK11 functional score is reported as 1.6 ± 0.3. With S169P the STK11 functional score was 0.391 ± 0.098. I322C showed an STK11 functional score of 1.17 ± 0.32. In the case of I177V, the STK11 functional score is reported as 1.06 ± 0.19. With Y49C the STK11 functional score was 1.01 ± 0.28.
